{"source": "patent US20260167959A1", "about": "“APTAZYME-BASED REGULATABLE GENE EXPRESSION SYSTEMS” (REJUVENATE BIO INC, priority 2022, published 2026)"}
{"system": "Renilla luciferase RNA", "experiment": "Barcoded aptazyme variant library screen: un-cleaved Renilla luciferase RNA by barcode read counts, HEK293-T cells", "type": "cell-based", "conditions": "un-cleaved Renilla luciferase RNA, HEK293-T cells cultured with 1 mM theophylline (ON) over without theophylline (OFF); barcode read counts, triplicate", "excerpt": "Based on the findings from Example 1, an aptazyme variant library was generated from the T3H48 ribozyme with one of seven variant theophylline aptamers inserted sequentially after each nucleotide of the DNA sequence encoding the T3H48 ribozyme sequence. […] The seven variant theophylline aptamers vary in their communication channels, which are the ribonucleotides of the aptamer that attach to the ribozyme sequence (see, Table 2).\nThe library was barcoded with unique sequences of nine nucleotides flanked by forward and reverse primer amplification sequences.\nThe aptazyme library was then PCR amplified and cloned into the psiCHECK™-2 dual luciferase vector in the 3′ UTR of the Renilla luciferase gene. […] The next day, the cells were isolated followed by DNA and RNA extraction using standard methods. The purified RNA was then converted to cDNA and the barcoded portion of the aptazyme library was PCR amplified. Similarly, the DNA was PCR amplified and all the samples were sequenced. All experimental conditions (with theophylline and without theophylline) were performed in triplicate. The read count for each barcode was determined with a custom build code and the data was normalized to identify the un-cleaved fractions of the Renilla luciferase RNA from cells that were cultured in the presence or absence of theophylline for each aptazyme, which was used to obtain the fold-change between ON- and OFF-states (FIG. 2).", "units": {"Fold change in RNA expression between the ON state and the OFF state": "fold"}}
{"molecule": "RA289 (nucleic acid, expressed or natural sequence) DNA: GCGCGTCCTGGATTCGCGGAAACGCGTACATCCAGGAATACCAGCATCGTCTTGATGCCCTTGGAAGTCCGCTGACGAGTCCCAAATAGGACGAAACGCGC", "Fold change in RNA expression between the ON state and the OFF state": 1.0}
{"molecule": "RA278 (nucleic acid, expressed or natural sequence) DNA: GCGCGTCCTGGATTCGAGTGATACCAGCATCGTCTTGATGCCCTTGGCAGCACTCGGAAACGCGTACATCCAGCTGACGAGTCCCAAATAGGACGAAACGCGC", "Fold change in RNA expression between the ON state and the OFF state": 1.0}
{"molecule": "RA280 (nucleic acid, expressed or natural sequence) DNA: GCGCGTCCTGGATTCGCGGAAACGCGTACATCCAGCTGACGAGTCCCAAATAGGAGGAATACCAGCATCGTCTTGATGCCCTTGGAAGTCCCGAAACGCGC", "Fold change in RNA expression between the ON state and the OFF state": 1.0}
{"molecule": "RA291 (nucleic acid, expressed or natural sequence) DNA: GCTGTCACCGGAATACCAGCATCGTCTTGATGCCCTTGGAAGTCCGGTCTGATGAGTCCCATAAGGACGAAACAGC", "Fold change in RNA expression between the ON state and the OFF state": 1.0}
{"molecule": "RA279 (nucleic acid, expressed or natural sequence) DNA: GCGCGTCCTGGATTCGCGGAAACGCGTACATCCAGCTGACGAGTCCCAAATAGGACGACGAGAATACCAGCATCGTCTTGATGCCCTTGGAAGTCTCGAACGCGC", "Fold change in RNA expression between the ON state and the OFF state": 1.0}
{"molecule": "RA296 (nucleic acid, expressed or natural sequence) DNA: GCGCGTCCTGGATTCGCGGAAACGCGTACATCCAGCTGACGAGTCCCAAATAGGAGAATACCAGCATCGTCTTGATGCCCTTGGAAGTCTACGAAACGCGC", "Fold change in RNA expression between the ON state and the OFF state": 1.0}
{"molecule": "RA281 (nucleic acid, expressed or natural sequence) DNA: GCGCGTCCTGGATTCGCGGAAACGCGTACATCCAGCTGACGAGTCCCAAATACGAGAATACCAGCATCGTCTTGATGCCCTTGGAAGTCTCGGGACGAAACGCGC", "Fold change in RNA expression between the ON state and the OFF state": 1.0}
{"molecule": "RA290 (nucleic acid, expressed or natural sequence) DNA: GCGCGTCCTGGATTCGCGGAAACGCGTACATCCAGCTGACGACCGGAATACCAGCATCGTCTTGATGCCCTTGGAAGTCCGGGTCCCAAATAGGACGAAACGCGC", "Fold change in RNA expression between the ON state and the OFF state": 1.0}
{"molecule": "RA285 (nucleic acid, expressed or natural sequence) DNA: GCGCGTCCTGGATTCGCGGAAACGCAGTGATACCAGCATCGTCTTGATGCCCTTGGCAGCACTGTACATCCAGCTGACGAGTCCCAAATAGGACGAAACGCGC", "Fold change in RNA expression between the ON state and the OFF state": 1.0}
{"molecule": "RA298 (nucleic acid, expressed or natural sequence) DNA: GCCGGAATACCAGCATCGTCTTGATGCCCTTGGAAGTCCGGCGTCCTGGATTCGCGGAAACGCGTACATCCAGCTGACGAGTCCCAAATAGGACGAAACGCGC", "Fold change in RNA expression between the ON state and the OFF state": 1.0}
{"molecule": "RA292 (nucleic acid, expressed or natural sequence) DNA: GCGCGTCGGAATACCAGCATCGTCTTGATGCCCTTGGAAGTCCGCCTGGATTCGCGGAAACGCGTACATCCAGCTGACGAGTCCCAAATAGGACGAAACGCGC", "Fold change in RNA expression between the ON state and the OFF state": 1.0}
{"molecule": "RA283 (nucleic acid, expressed or natural sequence) DNA: GCGCGTCCTGGAAGAATACCAGCATCGTCTTGATGCCCTTGGAAGTCTTTCGCGGAAACGCGTACATCCAGCTGACGAGTCCCAAATAGGACGAAACGCGC", "Fold change in RNA expression between the ON state and the OFF state": 1.0}
{"molecule": "RA284 (nucleic acid, expressed or natural sequence) DNA: GCGCGTCCTGGATTCGCGGAAACGGAATACCAGCATCGTCTTGATGCCCTTGGAAGTCCGCGTACATCCAGCTGACGAGTCCCAAATAGGACGAAACGCGC", "Fold change in RNA expression between the ON state and the OFF state": 1.0}
{"molecule": "RA286 (nucleic acid, expressed or natural sequence) DNA: GCGCGTCCTGGATTCGCGGAAAAGAATACCAGCATCGTCTTGATGCCCTTGGAAGTCTCGCGTACATCCAGCTGACGAGTCCCAAATAGGACGAAACGCGC", "Fold change in RNA expression between the ON state and the OFF state": 1.0}
{"molecule": "RA295 (nucleic acid, expressed or natural sequence) DNA: GCGCGTCCTGGATTCGCGGAAAGGAATACCAGCATCGTCTTGATGCCCTTGGAAGTCCCGCGTACATCCAGCTGACGAGTCCCAAATAGGACGAAACGCGC", "Fold change in RNA expression between the ON state and the OFF state": 1.0}
{"molecule": "RA293 (nucleic acid, expressed or natural sequence) DNA: GCGGGAATACCAGCATCGTCTTGATGCCCTTGGAAGTCCCGTCCTGGATTCGCGGAAACGCGTACATCCAGCTGACGAGTCCCAAATAGGACGAAACGCGC", "Fold change in RNA expression between the ON state and the OFF state": 1.0}
{"molecule": "RA288 (nucleic acid, expressed or natural sequence) DNA: GCGCGTCCTGGATTCGCGGAAACGCGTACATCCAGCTGACGAGTCCCAAATAAGTGATACCAGCATCGTCTTGATGCCCTTGGCAGCACTGGACGAAACGCGC", "Fold change in RNA expression between the ON state and the OFF state": 1.0}
{"molecule": "RA282 (nucleic acid, expressed or natural sequence) DNA: GCGCGTCCTGGATTCGCGAGAATACCAGCATCGTCTTGATGCCCTTGGAAGTCTCGCGGAAACGCGTACATCCAGCTGACGAGTCCCAAATAGGACGAAACGCGC", "Fold change in RNA expression between the ON state and the OFF state": 1.0}
{"molecule": "RA297 (nucleic acid, expressed or natural sequence) DNA: GCGCGGGAATACCAGCATCGTCTTGATGCCCTTGGAAGTCCTCCTGGATTCGCGGAAACGCGTACATCCAGCTGACGAGTCCCAAATAGGACGAAACGCGC", "Fold change in RNA expression between the ON state and the OFF state": 1.0}
{"molecule": "RA287 (nucleic acid, expressed or natural sequence) DNA: GCGCGTCCTGGATTCGCGGAAACGCGTACATCCAGCTGACGAAGTGATACCAGCATCGTCTTGATGCCCTTGGCAGCACTGTCCCAAATAGGACGAAACGCGC", "Fold change in RNA expression between the ON state and the OFF state": 1.0}
{"molecule": "RA028 (nucleic acid, expressed or natural sequence) DNA: GCGCGTCCTGGATTCGCGGAAACGCGTACATCCAGCTGACGACGGAATACCAGCATCGTCTTGATGCCCTTGGAAGTCCGGTCCCAAATAGGACGAAACGCGC", "Fold change in RNA expression between the ON state and the OFF state": 2.3}
{"molecule": "RA294 (nucleic acid, expressed or natural sequence) DNA: GCGCGTCCTGGATTCGCGGAAACGAGAATACCAGCATCGTCTTGATGCCCTTGGAAGTCTCGCGTACATCCAGCTGACGAGTCCCAAATAGGACGAAACGCGC", "Fold change in RNA expression between the ON state and the OFF state": 1.0}
{"molecule": "RA276 (nucleic acid, expressed or natural sequence) DNA: GCGCGTCCTGGATTCGCGGAAACGCGTACATCCAGCTGACGAAGAATACCAGCATCGTCTTGATGCCCTTGGAAGTCTGTCCCAAATAGGACGAAACGCGC", "Fold change in RNA expression between the ON state and the OFF state": 1.0}
{"molecule": "RA027 (nucleic acid, expressed or natural sequence) DNA: GCGCGTCCTGGATTCGCGGAAACGCGTACAGTGATACCAGCATCGTCTTGATGCCCTTGGCAGCACTATCCAGCTGACGAGTCCCAAATAGGACGAAACGCGC", "Fold change in RNA expression between the ON state and the OFF state": 2.4}
{"molecule": "RA277 (nucleic acid, expressed or natural sequence) DNA: GCGCGTCCTGGATTCGCGGAAACGCGTACATCCGAGAATACCAGCATCGTCTTGATGCCCTTGGAAGTCTCAGCTGACGAGTCCCAAATAGGACGAAACGCGC", "Fold change in RNA expression between the ON state and the OFF state": 1.0}
{"molecule": "RA002 (nucleic acid, expressed or natural sequence) DNA: GCGCGTCCTGGATTCGCGGAAACGCGTACATCCAGCTGACGAGTCCCAAATAGGACGAAACGAGAATACCAGCATCGTCTTGATGCCCTTGGAAGTCTCGCGCGC", "Fold change in RNA expression between the ON state and the OFF state": ">6"}
{"molecule": "RA275 (nucleic acid, expressed or natural sequence) DNA: GCGCGTCCTGGATTGAGAATACCAGCATCGTCTTGATGCCCTTGGAAGTCTCCGCGGAAACGCGTACATCCAGCTGACGAGTCCCAAATAGGACGAAACGCGC", "Fold change in RNA expression between the ON state and the OFF state": 1.0}
